Reference: patent US20090093002A1

Biological target: biotinylated complete Aβ1-42 peptide (Bachem) (UniProt P05067)
Assay: ELISA on biotinylated complete Aβ1-42 peptide

biotinylated complete Aβ1-42 peptide (Bachem), sequence (P05067 672-713 limits assumed): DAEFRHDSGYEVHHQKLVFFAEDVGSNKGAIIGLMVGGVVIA

Control IgG (antibody)
O.D: 0.196 O.D
